Assay results taken from US20260373285 (published 2026).
Residue numbers refer to the chain shown, from its start. Read-outs that look alike come from different tables or passages of the source.

Experiments:
human Trop-2 (His) [1] = target: T1, human Trop-2 (His) (human, UniProt P09758); assay: SPR
T1 chain: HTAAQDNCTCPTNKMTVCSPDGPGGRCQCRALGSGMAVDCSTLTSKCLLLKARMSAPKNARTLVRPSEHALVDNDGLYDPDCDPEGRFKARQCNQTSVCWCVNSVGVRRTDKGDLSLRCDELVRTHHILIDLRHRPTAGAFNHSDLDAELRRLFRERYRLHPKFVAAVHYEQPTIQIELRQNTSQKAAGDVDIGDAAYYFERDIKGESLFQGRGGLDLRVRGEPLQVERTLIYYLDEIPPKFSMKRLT

human Trop-2 (His) [2] = target: T1, human Trop-2 (His); assay: ELISA
human Trop-2 (His) [3] = target: T1, human Trop-2 (His); assay: SPR
human Trop-2 (His) [4] = target: T1, human Trop-2 (His); assay: SPR
human Trop-2 (His) [5] = target: T1, human Trop-2 (His); assay: SPR
[6] = target: T2, human Trop-2 on MDA-MB-468 cells (human, UniProt P09758); assay: FACS
T2 chain: T1 chain

hPD-L1(ECD)-His [7] = target: T3, hPD-L1(ECD)-His (human, UniProt Q9NZQ7); assay: SPR
hPD-L1(ECD)-His [8] = target: T3, hPD-L1(ECD)-His; assay: SPR; remark: listed apart in the source
hPD-L1(ECD)-His [9] = target: T3, hPD-L1(ECD)-His; assay: SPR; remark: listed apart in the source
hPD-L1(ECD)-His [10] = target: T3, hPD-L1(ECD)-His; assay: SPR supernatant
human Trop-2 (His) [11] = target: T1, human Trop-2 (His); assay: SPR
hPD-L1(ECD)-His [12] = target: T3, hPD-L1(ECD)-His; assay: SPR; remark: listed apart in the source
[13] = target: T4, human PD-L1 full length (on CHO cells) (human, UniProt Q9NZQ7); assay: FACS
cPD-L1(ECD)-His = cPD-L1(ECD)-His (cynomolgus); assay: ELISA
hPD-L1(ECD)-His [14] = target: T3, hPD-L1(ECD)-His; assay: ELISA
[15] = target: T4, human PD-L1 full length (on CHO cells); assay: competition FACS vs CD80
[16] = target: T4, human PD-L1 full length (on CHO cells); assay: competition FACS vs PD-1

T3 sequence (Q9NZQ7 19-238): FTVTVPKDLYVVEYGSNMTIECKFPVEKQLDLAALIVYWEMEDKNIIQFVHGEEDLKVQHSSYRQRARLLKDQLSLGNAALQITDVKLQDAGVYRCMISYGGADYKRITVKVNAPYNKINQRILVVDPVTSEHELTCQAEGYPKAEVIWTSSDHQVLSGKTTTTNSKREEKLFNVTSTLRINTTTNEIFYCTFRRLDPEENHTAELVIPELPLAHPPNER
T4 sequence (Q9NZQ7 19-238): as above
cPD-L1(ECD)-His (cynomolgus), sequence (chain, as listed by the source): as the sequence (Q9NZQ7 19-238) above, with A33T, A34S, S62N, R68Q, Q82R, F173L, T185A, T192I, H215L counted along it

B1: Trop-2-B-16 (antibody, V domains shown)
VH: EVQVVESGGGLVQPGGSLRLSCTAPERIFSIYNMGWYRQAPGKEREWVAFLMEGGRIEYADSVKGRFTISRDNAKSTVYLQMNNLNAEDAAVYYCNAGGRSGYWGKGTLVTVSS
What does the source list for B1?
Kd (human Trop-2 (His) [1]): 5.21 nM; EC50 (human Trop-2 (His) [2]): 0.0166 µg/mL

B2: ALGA105X Trop-2 arm (antibody, V domains shown)
V domain 1: EVQVVESGGGLVQPGGSLRLSCATSGYIFSNSGMGWYRQAPGKQRELVAAISSGGTTHYADSVKGRFTISRDNSKNTVYLQMNSLRAEDTAVYYCNGDRYYSGTDVFGSWGQGTLVTVSS
V domain 2: QVQLVQSGGGLVQPGGSLRLSCAASDRTFSEYNADWFRQAPGKEREFVAAITWSGKNTRYADSVKGRFTVSRDNSKNTVYLQMNSLRAEDTAVYYCATDRWWAAGNWDGVDYWGQGTLVTVSS
Which Kd (human Trop-2 (His) [3]) does the source give for B2 here?
Its Kd is 3.43 nM.

What about the Kd (human Trop-2 (His) [4]) of the same binder?
The Kd was 3.43 nM.

B3: ALGA105S-ADC Trop-2 arm (antibody, V domains shown)
V domain 1: B2 V domain 1
V domain 2: B2 V domain 2
modifications: exatecan drug-linker conjugate; full fusion SEQ67
For B3, which Kd (human Trop-2 (His) [3]) is on record?
Its Kd is 2.88 nM.

B4: ALGA105X-ADC Trop-2 arm (antibody, V domains shown)
V domain 1: B2 V domain 1
V domain 2: B2 V domain 2
modifications: exatecan drug-linker conjugate; full fusion SEQ69
For B4, which Kd (human Trop-2 (His) [3]) is on record?
The Kd was 3.33 nM.

B5: ALGA105S Trop-2 arm (antibody, V domains shown)
V domain 1: B2 V domain 1
V domain 2: B2 V domain 2
What does the source list for B5?
Kd (human Trop-2 (His) [3]): 2.75 nM; Kd (human Trop-2 (His) [4]): 2.44 nM

B6: Trop-2-A-258 (antibody, V domains shown)
VH: B2 V domain 2 with Q6E, P14A, S75A, R87K, A88P, Q115K
With B6 as the binder, how does the Kd (human Trop-2 (His) [1]) read?
Its Kd is 59.2 nM.

And the Kd (human Trop-2 (His) [5])?
The Kd was 64.6 nM.

And the EC50 [6]?
The EC50 was 0.34 µg/mL.

And the EC50 (human Trop-2 (His) [2])?
Its EC50 is 0.00557 µg/mL.

B7: ALGA105S PD-L1 arm (antibody, V domains shown)
VH: EVQLVQSGAEVKKPGATVKISCKVSGFNIEDTYIYWVQQAPGKGLEWMGWIDPANYNTKYDPRFQDRVTITVDTSTDTAYMELSSLRSEDTAVYYCARGLRLLMDYWGQGTTVTVSS
VL: DIQLTQSPSFLSASVGDRVTITCKASQNVHTSLAWYQQKPGKSPKLLIYLASNRHTGVPSRFSGSGSGTEFTLTISSLQPEDFATYYCLQHWNYPLTFGQGTKLEIKR
What does the source list for B7?
Kd (hPD-L1(ECD)-His [7]): 0.824 nM; Kd (hPD-L1(ECD)-His [8]): 0.824 nM

B8: ALGA105X PD-L1 arm (antibody, V domains shown)
VH: B7 VH
VL: B7 VL
B8 was tested. Which Kd (hPD-L1(ECD)-His [7]) did it give?
The Kd was 0.822 nM.

And the Kd (hPD-L1(ECD)-His [8])?
Its Kd is 0.822 nM.

B9: PD-L1-1.168.15-z3-uIgG1K (antibody, V domains shown)
VH: B7 VH
VL: B7 VL with S43A
Which results are given for B9?
Kd (hPD-L1(ECD)-His [9]): 0.876 nM; Kd (hPD-L1(ECD)-His [10]): 0.837 nM

B10: ALGA105X-ADC PD-L1 arm (antibody, V domains shown)
VH: B7 VH
VL: B7 VL
modifications: exatecan drug-linker conjugate; full fusion SEQ69:SEQ70
For B10, which Kd (hPD-L1(ECD)-His [7]) is on record?
The Kd was 0.652 nM.

B11: PD-L1-1.168.15-z4-uIgG1K (antibody, V domains shown)
VH: B7 VH
VL: B7 VL
Which Kd (hPD-L1(ECD)-His [9]) does the source give for B11 here?
The Kd was 0.613 nM.

And the Kd (hPD-L1(ECD)-His [8])?
The Kd was 0.647 nM.

What about the Kd (hPD-L1(ECD)-His [10]) of the same binder?
Its Kd is 0.775 nM.

B12: Datopotamab (ALGA106B) (antibody, V domains shown)
VH: QVQLVQSGAEVKKPGASVKVSCKASGYTFTTAGMQWVRQAPGQGLEWMGWINTHSGVPKYAEDFKGRVTISADTSTSTAYLQLSSLKSEDTAVYYCARSGFGSSYWYFDVWGQGTLVTVSS
VL: DIQMTQSPSSLSASVGDRVTITCKASQDVSTAVAWYQQKPGKAPKLLIYSASYRYTGVPSRFSGSGSGTDFTLTISSLQPEDFAVYYCQQHYITPLTFGQGTKLEIKR
For B12, which Kd (human Trop-2 (His) [1]) is on record?
The Kd was 23.5 nM.

And the Kd (human Trop-2 (His) [4])?
Its Kd is 22.5 nM.

And the Kd (human Trop-2 (His) [5])?
Its Kd is 28.3 nM.

And the Kd (human Trop-2 (His) [11])?
Its Kd is 15.4 nM.

And the EC50 [6]?
The EC50 was 0.827 µg/mL.

What about the EC50 (human Trop-2 (His) [2]) of the same binder?
The EC50 was 0.0507 µg/mL.

B13: Sacituzumab (ALGA106A) (antibody, V domains shown)
VH: QVQLQQSGSELKKPGASVKVSCKASGYTFTNYGMNWVKQAPGQGLKWMGWINTYTGEPTYTDDFKGRFAFSLDTSVSTAYLQISSLKADDTAVYFCARGGFGSSYWYFDVWGQGSLVTVSS
VL: B12 VL with M4L, T20S, T31I, S60D, Q100A, L104V
B13 was tested. Which Kd (human Trop-2 (His) [1]) did it give?
The Kd was 0.859 nM.

And the Kd (human Trop-2 (His) [11])?
The Kd was 0.859 nM.

And the EC50 [6]?
The EC50 was 0.151 µg/mL.

And the EC50 (human Trop-2 (His) [2])?
Its EC50 is 0.027 µg/mL.

B14: PD-L1-1.168.15-z11-uIgG1K (antibody)
chain 1: not shown
chain 2: DIQMTQSPSFLSASVGDRVTITCKASQNVHTSLAWYQQKPGKSPKALIYLASNRHTGVPSRFSGSGSGTEFTLTISSLQPEDFATYFCLQHWNYPLTFGQGTKLEIKRTVAAPSVFIFPPSDEQLKSGTASVVCLLNNFYPREAKVQWKVDNALQSGNSQESVTEQDSKDSTYSLSSTLTLSKADYEKHKVYACEVTHQGLSSPVTKSFNRGEC
For B14, which Kd (hPD-L1(ECD)-His [9]) is on record?
Its Kd is 0.62 nM.

What about the Kd (hPD-L1(ECD)-His [10]) of the same binder?
Its Kd is 0.863 nM.

B15: PD-L1-1.168.15 (antibody, V domains shown)
VH: EVQLQQSGAELVKPGASVKLSCTVSGFNIEDTYIYWVKQRPEQGLEWIGWIDPANYNTKYDPRFQDKATVTVDTSSNTAYMHLSSLTSEDTAVYYCARGLRLLMDYWGQGTSVTVSS
VL: DIVMTQSQKFMSSSVGDRVSITCKASQNVHTSLAWYQQRPGQSPKALIYLASNRHTGVPDRFTGSGSGTDFTLTISNVQSEDLADYFCLQHWNYPLTFGAGTKLELRR
B15 was tested. Which Kd (hPD-L1(ECD)-His [12]) did it give?
The Kd was 0.295 nM.

And the EC50 [13]?
The EC50 was 1.02 nM.

What about the EC50 (cPD-L1(ECD)-His) of the same binder?
Its EC50 is 0.38 nM.

What about the EC50 (hPD-L1(ECD)-His [14]) of the same binder?
The EC50 was 0.028 nM.

What about the IC50 [15] of the same binder?
Its IC50 is 2.07 nM.

And the IC50 [16]?
The IC50 was 3 nM.

B16: PD-L1-1.168.15-xIgG1K (antibody, V domains shown)
VH: B15 VH
VL: B15 VL
For B16, which Kd (hPD-L1(ECD)-His [9]) is on record?
The Kd was 0.275 nM.

What about the Kd (hPD-L1(ECD)-His [10]) of the same binder?
The Kd was 0.379 nM.
